The chains are these.
B1: TPR 5TU (parent)
chain: GGAUCUUCUCGAUCUAACAAAAAAGACAAAUCUGCCACAAAGCUUGAGAGCAUCUUCGGAUGCAGAGGCGGCAGCCUUCGGUGGCGCGAUAGCGCCAACGUUCUCAACUAUGACACGCAAAACGCGUGCUCCGUUGAAUGGAGUUUAUCAUG

Variants at the floor of the assay were thinned out.

The variants in this data set derive from B1. The experiment in a line: polymerase ribozyme fitness, log enrichment relative to wild type (log ratio); higher = more active; in vitro selection for triplet polymerase activity. In short, it runs like this:
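Mutant libraries of both subunits of a heterodimeric triplet polymerase ribozyme were PCR-built, transcribed, and selected once in triplicate, with frozen incubation at −7 °C and capture of gel-excised extended constructs on streptavidin beads before RT-PCR. Illumina sequencing of input and output libraries was filtered to genotypes with ≥10 input reads and ≥1 read per output. Fitness is the logarithm of genotype enrichment over wild-type enrichment, using inverse-variance-weighted replicate averages. The logarithm is base 2.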
Consider C108U A115G, for which the “polymerase ribozyme fitness (log ratio)” value was -3.94.

With C108G A122C, the “polymerase ribozyme fitness (log ratio)” value was not above -4.2.

With G100U U139G U146G, the “polymerase ribozyme fitness (log ratio)” value was not above -4.2.

Regarding C103G U144A, the “polymerase ribozyme fitness (log ratio)” value was -2.15.

Consider C103A A115C, for which the “polymerase ribozyme fitness (log ratio)” value was -2.54.

On to C103A A115U, for which the “polymerase ribozyme fitness (log ratio)” value was -3.09.

For the variant C103G G117U, the “polymerase ribozyme fitness (log ratio)” value is -0.61.

For U104G U135C G143C, the “polymerase ribozyme fitness (log ratio)” value is -3.79.

Take U104G U109A G133C: the “polymerase ribozyme fitness (log ratio)” value was -2.78.

On to U104G G126C, for which the “polymerase ribozyme fitness (log ratio)” value turned out to be 0.0565.

Turning to U104G G126A, the “polymerase ribozyme fitness (log ratio)” value worked out at 0.207.

Regarding U104G G141U, the “polymerase ribozyme fitness (log ratio)” value stood at 0.973.

As to U102C A150C, the “polymerase ribozyme fitness (log ratio)” value was -4.08.

Take C105U A142C: the “polymerase ribozyme fitness (log ratio)” value was -0.229.

For the variant A106G U134A, the “polymerase ribozyme fitness (log ratio)” value is -1.28.

Regarding U104G A119C C123U, the “polymerase ribozyme fitness (log ratio)” value was 0.501.

In the case of C114U, the “polymerase ribozyme fitness (log ratio)” value was -1.75.

On to C114G, for which the “polymerase ribozyme fitness (log ratio)” value was -2.54.

On to C114A, for which the “polymerase ribozyme fitness (log ratio)” value was -2.72.

On to A110G A122G, for which the “polymerase ribozyme fitness (log ratio)” value is -2.84.

Take A110U G128A: the “polymerase ribozyme fitness (log ratio)” value is not above -4.2.

Consider U102G G124A, for which the “polymerase ribozyme fitness (log ratio)” value is -2.85.

In the case of C114U C123U, the “polymerase ribozyme fitness (log ratio)” value was -2.17.

Take C105G U127C U139G: the “polymerase ribozyme fitness (log ratio)” value is -2.77.

As to U109G C118G U144A, the “polymerase ribozyme fitness (log ratio)” value was -3.88.

As to A106C C114A G140C G141C, the “polymerase ribozyme fitness (log ratio)” value was not above -4.2.

In the case of C114G G140C G141U, the “polymerase ribozyme fitness (log ratio)” value was not above -4.2.

With U109A G141A A142U, the “polymerase ribozyme fitness (log ratio)” value is not above -4.2.

For U102G A121U, the “polymerase ribozyme fitness (log ratio)” value is -2.32.

Turning to U102G A121C, the “polymerase ribozyme fitness (log ratio)” value was -2.85.

Turning to U111G, the “polymerase ribozyme fitness (log ratio)” value was -4.05.

Turning to U111A, the “polymerase ribozyme fitness (log ratio)” value was -3.05.

As to U111C, the “polymerase ribozyme fitness (log ratio)” value was -1.77.

For C103G A120U, the “polymerase ribozyme fitness (log ratio)” value was -1.5.

Take C103G A121G: the “polymerase ribozyme fitness (log ratio)” value is -1.32.

Regarding A106G A142C, the “polymerase ribozyme fitness (log ratio)” value is -0.922.

As to A107C A110G A121G, the “polymerase ribozyme fitness (log ratio)” value was not above -4.2.

For the variant C108U C132A U139A, the “polymerase ribozyme fitness (log ratio)” value was not above -4.2.

Turning to U102C U134A, the “polymerase ribozyme fitness (log ratio)” value is -3.46.

For the variant A106G A115U, the “polymerase ribozyme fitness (log ratio)” value is -1.05.

Take U109G G133C: the “polymerase ribozyme fitness (log ratio)” value was -2.

In the case of A113C U134C A137C G140A U148G, the “polymerase ribozyme fitness (log ratio)” value is not above -4.2.

As for U101A U109G C118U C125G A138G G141A, the “polymerase ribozyme fitness (log ratio)” value is not above -4.2.

Consider A113U G124U, for which the “polymerase ribozyme fitness (log ratio)” value was -2.07.

In the case of A113U G124C, the “polymerase ribozyme fitness (log ratio)” value was -3.17.

For the variant A113G U134A, the “polymerase ribozyme fitness (log ratio)” value is not above -4.2.

Regarding U101G A115U G117U A150C, the “polymerase ribozyme fitness (log ratio)” value is not above -4.2.

For C105U A119U G140A U146G, the “polymerase ribozyme fitness (log ratio)” value was -3.72.

For C114U A147C, the “polymerase ribozyme fitness (log ratio)” value was -2.83.

As for C103G A119C, the “polymerase ribozyme fitness (log ratio)” value was -1.49.

U109G G140U: the “polymerase ribozyme fitness (log ratio)” value is -3.76.

For G112U G141A U148G, the “polymerase ribozyme fitness (log ratio)” value is not above -4.2.

On to C103U U139A, for which the “polymerase ribozyme fitness (log ratio)” value is -3.96.

For the variant U101G G117A G133U, the “polymerase ribozyme fitness (log ratio)” value is -4.1.

On to U101G G124A, for which the “polymerase ribozyme fitness (log ratio)” value was 0.852.

For A107G C118U U145A, the “polymerase ribozyme fitness (log ratio)” value was not above -4.2.

Take C103U A115G: the “polymerase ribozyme fitness (log ratio)” value is -1.14.

For A106C G141A, the “polymerase ribozyme fitness (log ratio)” value is -0.24.

C114U A119U: the “polymerase ribozyme fitness (log ratio)” value was -1.73.

Consider A106U, for which the “polymerase ribozyme fitness (log ratio)” value was -0.23.

As to A106G, the “polymerase ribozyme fitness (log ratio)” value amounted to 0.398.

Regarding A106C, the “polymerase ribozyme fitness (log ratio)” value was -0.467.

As to U101G A106C A113C A122G, the “polymerase ribozyme fitness (log ratio)” value is not above -4.2.

With U102G C116A, the “polymerase ribozyme fitness (log ratio)” value was -2.07.

Turning to C114A U139G, the “polymerase ribozyme fitness (log ratio)” value is -2.32.

As to A106U U135A, the “polymerase ribozyme fitness (log ratio)” value is -2.14.

For C105G C118A, the “polymerase ribozyme fitness (log ratio)” value is -3.26.

On to C103G A138G, for which the “polymerase ribozyme fitness (log ratio)” value is -3.66.

Take A113G U148A: the “polymerase ribozyme fitness (log ratio)” value is -4.05.

In the case of A110C G112A G140C A142U, the “polymerase ribozyme fitness (log ratio)” value was -4.12.

Consider C103A U144G, for which the “polymerase ribozyme fitness (log ratio)” value is -2.84.

As to A113C C118A, the “polymerase ribozyme fitness (log ratio)” value was not above -4.2.

For the variant A113U U146C, the “polymerase ribozyme fitness (log ratio)” value is -1.49.

Consider C114U C125U, for which the “polymerase ribozyme fitness (log ratio)” value was -3.33.

Regarding A106G A110U, the “polymerase ribozyme fitness (log ratio)” value was -3.42.

Consider A107G G141U, for which the “polymerase ribozyme fitness (log ratio)” value was -3.07.

For A107C C118U, the “polymerase ribozyme fitness (log ratio)” value was not above -4.2.

As to C105G A138G, the “polymerase ribozyme fitness (log ratio)” value was -3.88.

C114U G140C A150C: the “polymerase ribozyme fitness (log ratio)” value is not above -4.2.

For the variant U102G C105U C125U A150C, the “polymerase ribozyme fitness (log ratio)” value is -4.12.

For U101C C132A, the “polymerase ribozyme fitness (log ratio)” value was -2.05.

In the case of C108U A142C, the “polymerase ribozyme fitness (log ratio)” value is -3.43.

Regarding C114A U144G, the “polymerase ribozyme fitness (log ratio)” value was -3.71.

Values taken from the RNAGym collection of RNA variant scans (doi:10.1073/pnas.2313332121).
